# Data from the Human Domainome abundance scans (Beltran et al. 2025).
# ± gives the uncertainty stated by the source.
# B1: Transcriptional regulator ERG, residues 117 to 197; numbered along this chain, P11308 (parent)
# chain: NMTTNERRVIVPADPTLWSTDHVRQWLEWAVKEYGLPDVNILLFQNIDGKELCKMTKDDFQRLTPSYNADILLSHLHYLRE
# Variants of: B1
# Experiment: abundance fitness (aPCA) (normalised: wild type 0, dead -1); higher = more abundant; growth selection in yeast, the domain comes from the species named
# Conditions: Homo sapiens
row,Variant,abundance fitness
1,NMTTNERRVIVPADPTLWSTDHVRQWLCWAVKEYGLPDVNILLFQNIDGKELCKMTKDDFQRLTPSYNADILLSHLHYLRE,-0.037 ± 0.066
2,NMTTNERRVIVPADPTLWSTEHVRQWLEWAVKEYGLPDVNILLFQNIDGKELCKMTKDDFQRLTPSYNADILLSHLHYLRE,0.042 ± 0.04
3,NMTTNERRVIVPADPTLWSTDHVRQWLEWAVKEYGLPDVNILLFQNIDGKELCKMTKDDFQRLTPSYNADILLSHLHYLQE,0.071 ± 0.11
4,NMTTNERRVIVPADPTLWSTDHVRQWLEWAVKEYGLPDVNILLFQNIDGKELCKMTKDDFQRLTPSYNADILLPHLHYLRE,-0.352 ± 0.12
5,NMTTNERRVIVPADPTLWSTDHVRQWLEWAVKEYGVPDVNILLFQNIDGKELCKMTKDDFQRLTPSYNADILLSHLHYLRE,-0.225 ± 0.04
6,NMTTVERRVIVPADPTLWSTDHVRQWLEWAVKEYGLPDVNILLFQNIDGKELCKMTKDDFQRLTPSYNADILLSHLHYLRE,-0.004 ± 0.044
7,NMTTNERRVIVPIDPTLWSTDHVRQWLEWAVKEYGLPDVNILLFQNIDGKELCKMTKDDFQRLTPSYNADILLSHLHYLRE,0.056 ± 0.068
8,NMTTNERRVIVPADPTLWSTDHVRQWLEWAVKEYGLPDVNILGFQNIDGKELCKMTKDDFQRLTPSYNADILLSHLHYLRE,-0.019 ± 0.03
9,NMTTNERRVIVPADPTLWSTDHVRQWLEWAVKEYGLPDVNILLFQNIDGKELCKMTKDDFQRLTPSYNADSLLSHLHYLRE,-0.148 ± 0.056
10,NMTTNERRVIVPADPTLWSTDHVRQWLEWAVKEYGLPDVNILLFQNIDGKEECKMTKDDFQRLTPSYNADILLSHLHYLRE,-0.367 ± 0.18
11,NMMTNERRVIVPADPTLWSTDHVRQWLEWAVKEYGLPDVNILLFQNIDGKELCKMTKDDFQRLTPSYNADILLSHLHYLRE,0.029 ± 0.067
12,NMTTNERRVIVPAAPTLWSTDHVRQWLEWAVKEYGLPDVNILLFQNIDGKELCKMTKDDFQRLTPSYNADILLSHLHYLRE,-0.716 ± 0.096
13,NMTTNERRVIVPADPTLWSTDHVRQWLEWAVKEYGLPDVNILLFQNIDGKELCKMTKDDFQRLTPSINADILLSHLHYLRE,-0.16 ± 0.19
14,NMTTNERRVIVPADPTLWSTDHVRQWLEWAVKEYGLPDVMILLFQNIDGKELCKMTKDDFQRLTPSYNADILLSHLHYLRE,-0.413 ± 0.078
15,NMTTNERRVIVPADPTLWSTDHVRQWLEWAVKEYGLHDVNILLFQNIDGKELCKMTKDDFQRLTPSYNADILLSHLHYLRE,0.016 ± 0.054
16,NMTTNERRVIVPADPTLWSTDHVRQWLEWAVKEYGLKDVNILLFQNIDGKELCKMTKDDFQRLTPSYNADILLSHLHYLRE,0.054 ± 0.054
17,NMTTNERRVIVPADPTLWSTDHVRQWLEWAVKEYGLPDVNILLFQNIDGKELCKMTKDDFQRLTPSYNADILLSHLHYLGE,-0.152 ± 0.054

row,Variant,abundance fitness
1,NMTTNERRVIAPADPTLWSTDHVRQWLEWAVKEYGLPDVNILLFQNIDGKELCKMTKDDFQRLTPSYNADILLSHLHYLRE,0.102 ± 0.04
2,NMTTNERRVIVPAVPTLWSTDHVRQWLEWAVKEYGLPDVNILLFQNIDGKELCKMTKDDFQRLTPSYNADILLSHLHYLRE,-0.656 ± 0.094
3,NMTTNERRVIVPADPTLWSTDHVRQALEWAVKEYGLPDVNILLFQNIDGKELCKMTKDDFQRLTPSYNADILLSHLHYLRE,-0.886 ± 0.11
4,NMTTNERRVIVPADPTLWSTDTVRQWLEWAVKEYGLPDVNILLFQNIDGKELCKMTKDDFQRLTPSYNADILLSHLHYLRE,-0.324 ± 0.064
5,NMTTNERRVIVPADPTLWSTDHVRQWLEWAVKEYGLPDVNILLFQNIDGKELCKMTKDDFQRLTPSYNADILLNHLHYLRE,0.032 ± 0.15
6,CMTTNERRVIVPADPTLWSTDHVRQWLEWAVKEYGLPDVNILLFQNIDGKELCKMTKDDFQRLTPSYNADILLSHLHYLRE,-0.057 ± 0.068
7,NMTTNERRVIVPADPTLWSTDHVRQWLEWAVKEYGLPDVNILSFQNIDGKELCKMTKDDFQRLTPSYNADILLSHLHYLRE,0.041 ± 0.044
8,NMTTNERRVIVPADPTLWSTDHVRQWLEWAVKEYGLPDVNILLFQNIDGKELCKMTKDDFQRQTPSYNADILLSHLHYLRE,-0.459 ± 0.17
9,NMTGNERRVIVPADPTLWSTDHVRQWLEWAVKEYGLPDVNILLFQNIDGKELCKMTKDDFQRLTPSYNADILLSHLHYLRE,-0.042 ± 0.032
10,NMTTNERRVIVPADPTLWSTDHVRQWLEWTVKEYGLPDVNILLFQNIDGKELCKMTKDDFQRLTPSYNADILLSHLHYLRE,-0.051 ± 0.058
11,NMTTNERRVIVPADPTLWSMDHVRQWLEWAVKEYGLPDVNILLFQNIDGKELCKMTKDDFQRLTPSYNADILLSHLHYLRE,-0.219 ± 0.071
12,NMTTNERRVIVPADPTLWSTDHVRQWLEWAVKEYGLPDVNILLFQNIDGKELCKMTKDDFQRLTPSYNADILLSILHYLRE,-0.215 ± 0.21
13,NMTTNERRVIVPADPTLWSTDHVRQWLEWAVKEYGLPDVNILLFQNIDGKELCKMTKDDFQRYTPSYNADILLSHLHYLRE,-0.027 ± 0.098
14,NMTTNERRVIVPADPTLWSTDHVRQWLEWAVKEYGLPDVNILLFQNIDGKELCKMTKDDFQRLTPSYNADTLLSHLHYLRE,0.05 ± 0.074
15,NMTTNERRVIVPADPTLWSTDHVRQWLEWAVKEYGLPDVNILLFQNIDGKELCKMTKDDFQRLTPDYNADILLSHLHYLRE,-0.185 ± 0.12
16,NMTTNERRVIVPADPTLWSTDHVRQWLLWAVKEYGLPDVNILLFQNIDGKELCKMTKDDFQRLTPSYNADILLSHLHYLRE,-0.09 ± 0.049
17,NMTTNERRVIVPADPTLWSTDHVRQWLEWAVKEYGLPDVNILLFQDIDGKELCKMTKDDFQRLTPSYNADILLSHLHYLRE,0.023 ± 0.062
